Results: the nanobody polyreactivity screen of Harvey et al. (2022)

Assay: yeast display, Sf9 membrane polyspecificity reagent, FACS + sequencing; frameworks hold sequencing errors
In short: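 Genes from sorted yeast were amplified by colony PCR, read by MiSeq 2 × 250 sequencing and filtered on CDR length. These cells carried a synthetic nanobody library in Saccharomyces cerevisiae BJ5465 and were sorted by FACS into low and high (top ~1%) gates on anti-HA and streptavidin fluorescence. Polyreactivity is labelled according to the gate of origin.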

Sequence	polyreactivity (PSR sort gate)
LVQLVESGGGLVQAGGSLRLSCAASGIIFRDNAMGWYRQAPGKERELVAAIDSSGGTTYADSVMGRFTISRDNAKNTVYLQMNSLKPEDTAVFYCATEVYWTVSYYGYDYYGGNYYYWGQGTQVTVSS	low polyreactivity
QVQLLDSGGGLVQAGGSLRLSCAASGFIFRPYPMACYRQSPGKERELVAPITGGGSTYYADSVKGRFTISRENAKNTVYLQMNSLKPEDTAVYYCNADRRRRSGGFAGWHFQRNDFWGQGTQVTVSS	low polyreactivity
QFQLVESGGGLVQAGGSLRLSCAATGSIFRGNAMGWYRQAPGKERELVAGINRAGSTKYADSVKGRFTISRDNAKNTVYLQMNSLKPEDTAVYYCAAVRYERGLWSDYWGQGTQVTVSS	high polyreactivity
QVQLEESGGGLVQAGGSLRLSCAASGSTYPSNAMGWYRQATGKERELVATITTGGSTYYADSVKGRFTISRDNAKNTVYLQMNSLKPEDTAVYYCNAEYVYLIFSVYLYDYDYWGLGTQVTVSS	low polyreactivity
QVQLVESGGGLVQAGGSLRLSCAASGSIFTSYAMGWYRQAPGKERELVAAITSTGGSTYYADSVKGRFTISRENAKNTVYLQMNSLKPEDTAVYYCNADGGTPYDYWGQGTQVTVSS	low polyreactivity
QGQLEESGGGLVQAGGSLRLSCAASGSTFTYYAMGWYRQATGKERELVAAISWSGTRTYYADSVKGRFTISRDNAKNTDYLQTNSLKPEDTAVYYCAADWRRSGVYTMGYWGQGTQVTVSS	high polyreactivity
QVQLVESGGGLVQAGGSLRLSCAASGFTFDYYTMGWYRQAPGKEREFVAAITWNGGSTYYADSVKGRFTISRYNAKNTVYLQMNSLKPEDSAVYYCAADTTYGINRREYWGQGTQVTVSS	low polyreactivity
QVQLEESGGGLVQAGGSLRLSCAASGSTNVKYAMGWYRQAPGKERELVAAITYSGDSTYYADSLKGRFTSSRDNAKNTVYLQINSLKPEDTAVYYWAAELVVRYMVSDYELEYWGQGTQVTVSS	low polyreactivity
QVQLVESGGGLDQAGGSLRLSCAASGITFKPYGMGWYRQAPGKERELVADITSGGITYYADSVKGRFTISRDNAKNTVYLQMNSLKPEDTAVYYCATGDLFVFYWGYVVRLYDYWGQGTQVTVSS	low polyreactivity
QVQLVESGGGLVQAGGSLRLSCAASGIIFGGYAMGWYGQAPGKERELVASITWGGGSTYYADSVKGRFTISRDNAKNTVYLQMNSLKPEDTAVYYCNKRGYPGSDWGQGTQVTVSS	low polyreactivity
QVQLVESGGGLVQAGGSLRLSCAASGFTFQYYAMGWYRQAPGKERELVAAISWSGGSTYYADSVKGRFTISRDNAKNTVYLQMNSLKPEDTAVYYCAAAPYTYPLGFDYWGQGTQVTVSS	high polyreactivity
QVQLVESGGGLVQAGGRLRLSCAASGSTFAWSAMGWYRQAPGKERELVAGIWNTGRTYYADSVKGRFTISRDNAKNTVYLQMNSLKPEDTAVYYCAALYNSPNVTYYYWGQGTQVTVSS	high polyreactivity
QVQLVESAGGLVQAGGSLRLSCAASGSTFAYNVMGWYRQAPGKERELVASISSSSGSTYYADSVKGRFTISRDNAKNTVYLQMNSLKPEDTAVYYCATYPAYTEYDYWGQGTQVTVSS	high polyreactivity
QVQLVESGGGLVQAGGSLRLSCAASGSIFVPYTMGWYTQAPGKERELVASISYSGGTTYYADSVKGRFTISRDNAKNTVYLQMNSLKPEDTAVYYCAADWDESFSYRRYRHYDYWGQGTQVTVSS	low polyreactivity
QVQLVESGGCLVQAGGSLRLSCAASGRIFAYNAMGWYRQAPGKESELVAAITRGGSTNYADSVKGRFTISRDNAKNTVYLQMNSLKPEDTAVYYCAARRVDTRVHVRYRYYYWGQGTQVTVSS	high polyreactivity
QVQLVESGGGLVQAGGSLRLSCAASGRTFDLYAMGWYRQAPGKERELVARITNIDDSTYYADSVKGRFTISRDNAKNTVYLQMNSLKPEDTAVYYCNAASYSRGPARYDYWGQGTQVTVSS	high polyreactivity

Sequence	polyreactivity (PSR sort gate)
QLQLEESAGGLVQAGGSLRLSCAASGSIFGPYAMGSYSQAPGKERELVAAITWSGDSTYYADSVKGRFTISRDNAKNTVYLQMNSLKPEDTAVSYCNADWGQGTQVTVSS	low polyreactivity
QVQLVESGGGLVQAGGSLRLSCAASGFTFDDYDMGWYRQAPGKERELVAAISWSGGSTYYADSVKGRFTFSRDNAKNTVYLQMNSLKPEDSAVYYCAAERSYGGFDYWGQGTQVTVSS	low polyreactivity
QVQLVESGGGLVQAGGSLRLSCAASGITLQFYAIGWYRQAPGKERELVAAISISGGRTYYADSVKGRFTISRDNAKNTVYLQMNSLKPEDTAVYYCAAYLQRAYRYGYWGQGTQVTVSS	high polyreactivity
QVQLVESGGGLVQAGGSLRLSCAASGSIFGDYAMGWYRQAPGKERELVAAITSSGGITYYADSVKGRFTISRDNAKNTVYLQMNSLKPEDTAVYYCAAYGYGSNYRYTGYYYWGQGTQVTVSS	low polyreactivity
QVQLVESGGGLVQAGGSLRLSCAASGLIFGVYAMGWYRQAPGKESELVAAISKNGDRTYYADSVKGRFTISRDNAKNTVYLQMNCLKPEDTAVYYCAAVWARSTYGPYYYWGQGTQVTVSS	high polyreactivity
QVLLVESGGGLVQAGGSLRLSCAASGRTFGTNGMGWYRQAPGKERELVAVITWTGGSTYYADSVKGRFTITRDNEKNTVYLQMNSLKPEDTAVYYCAAKYSHLGYNYWGQGTQVTVSS	high polyreactivity
QVQLQESGGGQVQAGGTITLGYDMGWYRQAPGKEREFVAGIDTGAITYYADSVKGRFTNSRDNAKNTVYLQMNSLKPEDTAVYYCAAIQTHTYAHSYWGQGTQVTVSS	high polyreactivity
QVQLVESGGGLVQAGGSLRLSCAASGFTFSYSAMGGYSQAPGKERELVAAISRSGSGTSYADSVKGRFTISRDNAKNTVYLQMTSLKPEDTAVYYCAARGGTTRYGNDYWGQGTQVTVSS	high polyreactivity
QVQLVESGGGLVQAGGSLRLSCAASGNTLVKNAMGWYRQAPGNERELVAAISSSGGRTYYADSVKGRFTISRDNAKNTVYLQMNSLKPEDTAVYYCAARYPSGYYYWGQGTQVTVSS	high polyreactivity
QVQLVESGGGLVQAGGSHRLSCAASGIIFPWYVMGWYRQAPGKERELVAAITQSGGSTFYADSLKGRFTISRDNAKNTVYLQMNCLKPEDTAVYYCHTEDFFKFPEMDSWGQGTQLTVSS	low polyreactivity
QVQLVESGGGLVQAGGSLRLSCAASGLILRKYAMGWYRQAPGKEREFVAAITQTGSRTYYADSVKGRFTISRDNAKNPVYLQMNSLKPEDTAVYYCAADLPRWGSYGYGKMDHWGQGTQVTVSS	high polyreactivity
QVQLVESGGGLVQAGGSLRLSCAASGSIFFKNVMGWYRQAPGKERELVAAITWSGGSTYYADSVKGRFTISRDNAKNTVYLQMNSLKPEDTAVYYCNARRSKGMYYWGQGTQVTVSS	high polyreactivity
QVQLVESGGGLVQAGGSLRLSCAASGRTFIRYTMGWYRPAPGKERELVAAITSTGRTYYADSVKGRFTISRDNAKNTVYLQMNSLKPEDTAVYYCAAKQSWEGYDYWGQGTQVTVSS	low polyreactivity
QVQLVESGGGLVQAGGSLRLSCAASGFIFDQNAMGCYRQAPGKEREFVAAISSRGSRTYYADSVKGRFTISRDKAKNTVYLQMNSLKPEDTAVYDCAAGYWARLYDYDYWGQGTQVTVSS	high polyreactivity
QVQLVESGGGLVQAGCRLRLSCAAAAYIYRYAMGWYIQAPGKEREFVAAITWNGGSTYYADSVNGRFTISRDNAKITVYLQMNSLKPEDTGVYYCADDWSYYRRHFDYWGHGTQVTVSS	high polyreactivity
QVQLVESGGGLVQAGGSLRLSCAASGSIFKYYTIGWYRQAPGKERELVAAISWSGGRTYYADSVKGRFTISRDIAKNTVYLQMNSLKPEDTAVYYCAKYVSYSRTLYDYWGQGTKVTVSS	high polyreactivity
